Measurements reported in the DeepSol protein solubility set.

Assay: soluble on expression in E. coli; label from the status in PepcDB or PDB records
In the case of “MGSDKIHHHHHHMASNITGFELFKSNPNWQELPDSFWEFCSAHGRVRHYAAKQFLFFFGEESNSVYFLLKGRIQILLMSEFTEKIFRILQPPAFFPEVVLDSKTYPYAALTAEASDVFVLDRKALVQYFKENPSTLLPFYQNMALDLRRAYRQIKNIALGDARSRLGAKLFALAHVHGQETPEGILITVPLTATELAGMCSLARESVSRILSELRDLGILKMEKKQITISDLEQLRSWIHERQNSL”, the “soluble on expression in E. coli” value is reported as “not soluble”.
With “MKIEVWSDFVCPFCYMGKRRLEIALNEFEYKTDVEISFKSFELDPSAKKEYSENIHELIAKKYKISVEQAKASNDQIVLQAEAIGLNYNFNKLIPTNTFDAHRLSQYAKTKGKMNELSEKIFKAYFVDSLNISDYKVLADLAEEVGISRDESLRILESNQYNEEVREDEKNASKLGIDAVPYFVFDDKYAVSGAQPAEVFLEALYKIDKE” the “soluble on expression in E. coli” value was “not soluble”.
With “METTFALLNFKESLCYIYPPTEPVRYVSSIVALNVHSPNGTGDWHSAKALSDRAYPEKFYIYGENQERNTNHLFGDNGIIDGTDRLNKMGYFPENIPVWLADHPRACVDYLYTAVLQTGSIGRVILDDWFPSDEDKQSVYDLLNQIEPHLNTQEWENLQLWKRKNPIM” the “soluble on expression in E. coli” value was “not soluble”.
For “MLNSVKKLLGDSQKRKLKKYEQLVQEINNLEEKLSDLSDEELRHKTITFKDMLRDGKTVDDIKVEAFAVVREAAKRVLGLRHYDVQLIGGLVLLEGNIAEMPTGEGKTLVSSLPTYVRALEGKGVHVITVNDYLAKRDKELIGQVHEFLGLKVGLNIPQIDPSEKKLAYEADITYGIGTEFGFDYLRDNMAASKNEQVQRPYHFAIIDEIDSVLIDEAKTPLIIAGKKSSSSDLHYLCAKVIKSFQDTLHYTYDAESKSASFTEDGITKIEDLFDIDNLYDLEHQTLYHYMIQALRAHVAFQCDVDYIVHDEKILLVDIFTGRVMDGRSLSDGLHQALEAKEGLEITEENQTQASITIQNFFRMYPALSGMTGTAKTEEKEFNRVYNMEVMPIPTNRPIIREDKKDVVYVTADAKYKAVREDVLKHNKQGRPILIGTMSILQSETVARYLDEANITYQLLNAKSAEQEADLIATAGQKGQITIATNMAGRGTDILLGEGVHELGGLHVIGTERHESRRVDNQLKGRAGRQGDPGSSQFFLSLEDEMLKRFAQEEVEKLTKSLKTDETGLILTSKVHDFVNRTQLICEGSHFSMREYNLKLDDVINDQRNVIYKLRNNLLQEDTNMIEIIIPMIDHAVEAISKQYLVEGMLPEEWDFASLTASLNEILSVENMPSLSANNVHSPEDLQSVLKETLSLYKERVNELDSNTDLQQSLRYVALHFLDQNWVNHLDAMTHLKEGIGLRQYQQEDPTRLYQKEALDIFLYTYGNFEKEMCRYVARHLGVPENVQ”, the “soluble on expression in E. coli” value was “not soluble”.
With “MFIQTEPTPNPATLKFIPGRSVLDSGTLEFTDASQAARSPLAARLFDIDGVSGVFYGTDFVTVTKDKGEWQHLKPAILGAIMEHYMSGTPILADGKSDGEDGDDDEFYADADAETVEIIKDLIETRVRPAVANDGGDITFRGFKDGIVYLNMRGACAGCPSSTATLQHGIQNLLKHFVPEVVEVRPVT” the “soluble on expression in E. coli” value was “not soluble”.
For “MTTHQDGNADGASATARTVSLDVVVVGAGTSGCYAAATVADAGYDVVIVERKDETEAGHIACGDALKGASDFPDAIPKSQLEPAFTNTDVDHGRFEIPQEDTVLEIPVPGELAVIDRWEYGRCLIEGANDSGVEFHYDTVVQDVLQDDSGRVTGVKAMRKGDPVTYEGDMVIDGAGALSILQDKTDLEAATFDTNVQYSQFCSAYREIIEVDEPVEWDDALVFKPTERSAGYLWYFPRTDTEINAGLGFQMNEEPMELVDDLKRDLQGRSEFEGAEVQDKLGAALPTRRPYDSAVAPGFMAVGDAAGHVNPTTGGGIAGAAYAGTYAAEQAIEAIEAGRTDDEAALWEYNERVMDHFGARYAALDVYNIFTTAYDVDDLMALLAALPGEKLAEALYGGSTSIGLGLKLKMAVKSIGHLGTIRDLYQTKKAADRLLEHYESYPSDRSGFEAWQRERDSIMDDIYEVTGAEPKYLEHHHHHH”, the “soluble on expression in E. coli” value was “soluble”.
In the case of “MIPQRIKELEAYKTEVTPASVRLSSNEFPYDFPEEIKQRALEELKKVPLNKYPDPEAKELKAVLADFFGVKEENLVLGNGSDELIYYLSIAIGELYIPVYIPVPTFPMYEISAKVLGRPLVKVQLDENFDIDLERSIELIEKEKPVLGYFAYPNNPTGNLFSRGKIEEIRNRGVFCVIDEAYYHYSGETFLEDALKREDTVVLRTLSKIGMASLRVGILIGKGEIVSEINKVRLPFNVTYPSQVMAKVLLTEGREFLMEKIQEVVKERERMYDEMKKIEGVEVFPSKANFLLFRTPYPAHEVYQELLKRDVLVRNVSYMEGLQKCLRVSVGKPEENNKFLEALEESIKSLSSSL”, the “soluble on expression in E. coli” value is reported as “soluble”.
In the case of “MSILAEPKRKQKISIDPQNLTWKNDDQKLSKKLMEKMGWSEGDGLGRNRQGNADSVKLKANTSGRGLGADKMADYDSTWISHHDDFADLLAALNKNKEQEPEQTEEEKNAAAEKISIELKSKSIRRRIHYQKFTRAKDTSNYSDSHKKGILGYGRLKSDNAEEKIEEKTENSSVKSDSSDSQADSQEKKEGNNTVSTLSVGDYFAAKMAALKAKREAAAANQTEVKMEIKTEVEEEESDEEKARRKAEKKERKRLRREQRDKEETLETVETILEVKQEVKEEIIDEEFDEAERKRLKKEKKRLKRLREQQQPENEGAEGGEADEEEIPRKRKKHTEDEH”, the “soluble on expression in E. coli” value is reported as “not soluble”.
For “MEQKNVRNFCIIAHVDHGKSTLADRLLEYTGAISEREKREQLLDTLDVERERGITVKMQAVRMFYKAKDGNTYKLHLIDTPGHVDFSYEVSRALAACEGALLLIDASQGIEAQTVANFWKAVEQDLVIIPVINKIDLPSADVDRVKKQIEEVLGLDPEEAILASAKEGIGIEEILEAIVNRIPPPKGDPQKPLKALIFDSYYDPYRGAVAFVRIFDGEVKPGDKIMLMSTGKEYEVTEVGAQTPKMTKFDKLSAGDVGYIAASIKDVRDIRIGDTITHAKNPTKEPVPGFQPAKPMVYAGIYPAEDTTYEELRDALEKYAINDAAIVYEPESSPALGMGFRVGFLGLLHMEIVQERLEREYGVKIITTAPNVIYRVKKKFTDEVIEVRNPMDFPDNAGLIEYVEEPFVLVTIITPKEYVGPIIQLCQEKRGIQKNMTYLDPNTVYLEYEMPLSEIIVDFHDKIKSISRGFASYDYEFIGYRPSDLIKLTVLINKKPVDALSFIVHADRAQKFARRVAEKLRETIPRQLFEVHIQVAKGGKVIASERIKPLRANVTAKCYGGDVTRKKKLLENQKEGKKRMKQFGKVQLPQEAFLSVLKVE”, the “soluble on expression in E. coli” value was “soluble”.
In the case of “MSFFDKVKGALTSGREELTRQVGRYKNKKFMQGTVAVCARIAVASDGVSSEEKQKMIGFLRSSEELKVFDTAEVIEFFNKLVTSFDFDLEIGKGETMKYILALKDQPEAAQLALRVGIAVAKSDGNFDDDEKSAVREIARSLGFDPAEFGLLE”, the “soluble on expression in E. coli” value is reported as “soluble”.
In the case of “MSGALDGVRVLDLSRVLAGPYATMILGDLGADVIKVEAPGGSDDTRFWGPPFQNGMSAYYTAVNRNKRSITVNLKSAEGQETIRRLAETADVLIHNFKTGTMEQWELGYESLSRLNPRLIYCSITGFGETGPLAPLAGYDYIIQAMSGWMSINGTADTGPLKVGVAVTDVFTGLYAAIAIEAALLAREKTGRGQKIDLALFDCAVSALVNVAANYLLSGDVPKPLGNEHPNIVPYSTYMASDGPIVIAVGNDRQFQALCSLLSDHSLGTDPRFQTNPGRVAHREELNRRLNEEIKRRTRAEWQRLLAEKGIPCGPVQTLDELFRHPQTAAREMTVTVHHPIVGPLTLVASPLKLSDTAVSYRLPPPLAGEHNGEVEAGWQGKPAAENGPHDKNQ”, the “soluble on expression in E. coli” value is reported as “not soluble”.
In the case of “MEKNLYDTNKLIELYKNKESMSGYTTILNVIEFPKALEFNLTVLYLSKSDYRLAIKISTELLKIGEPVPAVYTLISAIANKQRFKGCNAGQTFYAS”, the “soluble on expression in E. coli” value is reported as “not soluble”.
In the case of “MSLLRPLSKTDCPMLQEINAKALGYLVSLDLLERQYERLIEDCHHYFLAYADKDTNQLLGYVHAERYETLYASDGLNLLGLAVLPAYQRRGIGSALLRALESQARQEGIAFIRLNSASHRKEAHAFYRNLDYADDKTQLRFIKNLQGDDNDFEGHHHHHH”, the “soluble on expression in E. coli” value is reported as “soluble”.
With “GPLGSTRAKTQEEIKREEEQAIDEVLKIEFLELALGYQLISLADMKQGGDLLERIRGIRKKIASDYGFLMPQIRIRDNLQLPPTHYEIKLKGIVIGEGMVMPDKFLAMNTGFVNREIEGIPTKEPAFGMDALWIDAKNKEEAIIQGYTIIDPSTVIATHTSELVKKYAEDFITKDEVKSLLERLAKDYPTIVEESKKIPTGAIRSVLQALLHEKIPIKDMLTILETITDIAPLVQNDVNILTEQVRARLSRVITNAFKSEDGRLKFLTFSTDSEQFLLNKLRENGTSKSLLLNVGELQKLIEGVSEEAMKVLQKGIAPVILIVEPNLRKALSNQMEQARIDVVVLSHAELDPNSNFEALGTIHIN” the “soluble on expression in E. coli” value was “soluble”.
In the case of “MEQFRNIGIIGRLGSVQVLDTVRRLKRFLLDRHLHVILEETIAEVLPGHGLQTSSRKMLGEVCDMVIVVGGDGSLLGAARALARHNVPVLGINRGSLGFLTDIRPDELEVKCAEVLDGHYLVENRFLLQAEVRRHGEAIGQGDALNDVVLHPGKSTRMIEFEIYIDGQFVCSQKADGLIVATPTGSTAYALSAGGPIMHPKLDAIVIVPMYPHTLSGRPIVVDGNSELKIVVSKDMTIYPQVSCDGQNHFTCAPGDTITVSKKPQKLRLIHPLDHNYYEVCRTKLGWGSRLGGGGDLEHHHHHH”, the “soluble on expression in E. coli” value is reported as “soluble”.
For “MSLKTELTLLEQTLTLHRFPKRNNETLQAWDAGDEYLIQHVEQLALPESSHIVIINDHFGTLSCWFSQKHKVSMMSDSYIAHQATQANLQQNQRPPVQLLTTLDPVPNDASVVLLQLPKSNRHLVWILSQLRKALSPNIPIIAVNKAKEIHTSTLNLFEKHLGPTTTSLAWKKHRLVFSSATVNPANEVNPECGWSIEPYAITLTNLPNVYSGESLDLGSRFILEHLPADPTLEDFIDLGCGNGVLSVRLGQLNPQAKITCVDESFMAIASAQKNLHDNLGKRDIHCIANNCLDGFPAHSSSMIVCNPPFHQQQTITDHIAWQMFCDSKHVLKKGGKLWVIGNRHLGYDVKLARLFGKSHVRVIANNSKFVILQAIKSEGHHHHHH”, the “soluble on expression in E. coli” value was “soluble”.
With “MREWKSQDAWKQHSLRLCFGVWPGTEFLHRPRAVHRRSGVVCSQMQTEDSHPETPQVPKESLQEEKDSSPATDASFIQSQDGKTVFLDRRTERRIQRGFVLTERGPRSIWKPAGTSSQRNERVPRRAAARGGAGPPDTTPQLATVRVLVLGANHVAQRLAELLSSHSRVCGCYFVSETTDEAAIESMKKYAYALPLRSALNDDEVVRVAEWVLADYVFLVPTGETHDDGVSLKDKERLERTLAQNRVTFMDENLTGLLLENPSLIDALFRARDSLEA” the “soluble on expression in E. coli” value was “not soluble”.
In the case of “MAHHHHHHMADGKAENELMEIEEIAVSDGGAARFAPVEVKSGEEKYNIVWEETGKLLRFDEGENAWKERGQGMAKILQKKEDSGVYMFVFRREGVGKLAAQHYLLRGMTIKVHPQSEKALLWTAFKDYSDDEEGFPERFVLRFASKELADSGLKAFNDALSKTTT”, the “soluble on expression in E. coli” value is reported as “soluble”.
For “AMKPAQKGKTFSNVEIFDPPTNYRDPQVLYARPLELSDGTLLGTWENYSPEPPNVWFPIVKSKDGGKTWKEISKVKDTQNNWGLRYQPQLYELPRAFGKYPKGTVLCSGSSIPSDLSETLIEVYASRDKGYTWEFVSHVALGGEALPNPGLTPVWEPFLMTYKEKLILYYSDQRDNATHSQKLVHQTTTDLKKWSKVVDDTKYADYYARPGMPTVAKLPNNEYIYVYEYGGGPNPPAGSDYWFPVYYRLSKDPQKFLNKAHHQIVSNDGTTPAGSPYVVWTPYGGKNGTIVVSCGTRSEIFTNQALGDASAWKKWDVPQPTAYTRSLLTFQKDPDLLMIMGAGILPPAGGKNTVSASVVRLSEVMKS”, the “soluble on expression in E. coli” value was “soluble”.
